Results published in patent US20170283834A1, “Processes for Producing A Fermentation Product Using A Fermenting Organism” (Novozymes A/S, priority 2014, published 2017).

B1: JTP059: protease variant of SEQ ID NO: 3: C6R/D79L/S87P (protein, listed as Thermoascus aurantiacus)
chain: MRLVASLTALVALSVPVFPAAVNVKRASSYLEITLSQVSNTLIKAVVQNTGSDELSFVHLNFFKDPAPVKKVSVYRDGSEVQFEGILSRYKSTGLSRDAFTYLAPGESVEDVFDIASTYDLTSGGPVTIRTEGVVPYATANSTDIAGYISYSSNVLTIDVDGAAAATVSKAITPLDRRTRISSRSGSRQSALTTALRNAASLANAAADAAQSGSASKFSEYFKTTSSSTRQTVAARLRAVAREASSSSSGATTYYCLDPYGYCSPNVLAYTLPSYNIIANCDIFYTYLPALTSTCHAQDQATTALHEFTHAPGVYSPGTDDLAYGYQAAMGLSSSQAVMNADTYALYANAIYLGC
B2: JTP071: protease variant of SEQ ID NO: 3: D79L/S87P/T116V (protein, listed as Thermoascus aurantiacus)
chain: MRLVASLTALVALSVPVFPAAVNVKRASSYLEITLSQVSNTLIKAVVQNTGSDELSFVHLNFFKDPAPVKKVSVYRDGSEVQFEGILSRYKSTGLSRDAFTYLAPGESVEDVFDIASTYDLTSGGPVTIRTEGVVPYATANSTDIAGYISYSSNVLTIDVDGAAAATVSKAITPLDRRTRISSCSGSRQSALTTALRNAASLANAAADAAQSGSASKFSEYFKTTSSSTRQTVAARLRAVAREASSSSSGATTYYCLDPYGYCSPNVLAYTLPSYNIIANCDIFYTYLPALTSVCHAQDQATTALHEFTHAPGVYSPGTDDLAYGYQAAMGLSSSQAVMNADTYALYANAIYLGC
B3: JTP064: protease variant of SEQ ID NO: 3: D79L/S87P/N88R (protein, listed as Thermoascus aurantiacus)
chain: MRLVASLTALVALSVPVFPAAVNVKRASSYLEITLSQVSNTLIKAVVQNTGSDELSFVHLNFFKDPAPVKKVSVYRDGSEVQFEGILSRYKSTGLSRDAFTYLAPGESVEDVFDIASTYDLTSGGPVTIRTEGVVPYATANSTDIAGYISYSSNVLTIDVDGAAAATVSKAITPLDRRTRISSCSGSRQSALTTALRNAASLANAAADAAQSGSASKFSEYFKTTSSSTRQTVAARLRAVAREASSSSSGATTYYCLDPYGYCSPRVLAYTLPSYNIIANCDIFYTYLPALTSTCHAQDQATTALHEFTHAPGVYSPGTDDLAYGYQAAMGLSSSQAVMNADTYALYANAIYLGC
B4: JTP069: protease variant of SEQ ID NO: 3: D79L/S87P/S115R (protein, listed as Thermoascus aurantiacus)
chain: MRLVASLTALVALSVPVFPAAVNVKRASSYLEITLSQVSNTLIKAVVQNTGSDELSFVHLNFFKDPAPVKKVSVYRDGSEVQFEGILSRYKSTGLSRDAFTYLAPGESVEDVFDIASTYDLTSGGPVTIRTEGVVPYATANSTDIAGYISYSSNVLTIDVDGAAAATVSKAITPLDRRTRISSCSGSRQSALTTALRNAASLANAAADAAQSGSASKFSEYFKTTSSSTRQTVAARLRAVAREASSSSSGATTYYCLDPYGYCSPNVLAYTLPSYNIIANCDIFYTYLPALTRTCHAQDQATTALHEFTHAPGVYSPGTDDLAYGYQAAMGLSSSQAVMNADTYALYANAIYLGC
B5: JTP063: protease variant of SEQ ID NO: 3: S49R/D79L/S87P (protein, listed as Thermoascus aurantiacus)
chain: MRLVASLTALVALSVPVFPAAVNVKRASSYLEITLSQVSNTLIKAVVQNTGSDELSFVHLNFFKDPAPVKKVSVYRDGSEVQFEGILSRYKSTGLSRDAFTYLAPGESVEDVFDIASTYDLTSGGPVTIRTEGVVPYATANSTDIAGYISYSSNVLTIDVDGAAAATVSKAITPLDRRTRISSCSGSRQSALTTALRNAASLANAAADAAQSGSASKFSEYFKTTSRSTRQTVAARLRAVAREASSSSSGATTYYCLDPYGYCSPNVLAYTLPSYNIIANCDIFYTYLPALTSTCHAQDQATTALHEFTHAPGVYSPGTDDLAYGYQAAMGLSSSQAVMNADTYALYANAIYLGC
B6: JTP061: protease variant of SEQ ID NO: 3: T46R/D79L/S87P (protein, listed as Thermoascus aurantiacus)
chain: MRLVASLTALVALSVPVFPAAVNVKRASSYLEITLSQVSNTLIKAVVQNTGSDELSFVHLNFFKDPAPVKKVSVYRDGSEVQFEGILSRYKSTGLSRDAFTYLAPGESVEDVFDIASTYDLTSGGPVTIRTEGVVPYATANSTDIAGYISYSSNVLTIDVDGAAAATVSKAITPLDRRTRISSCSGSRQSALTTALRNAASLANAAADAAQSGSASKFSEYFKRTSSSTRQTVAARLRAVAREASSSSSGATTYYCLDPYGYCSPNVLAYTLPSYNIIANCDIFYTYLPALTSTCHAQDQATTALHEFTHAPGVYSPGTDDLAYGYQAAMGLSSSQAVMNADTYALYANAIYLGC
B7: JTP078: protease variant of SEQ ID NO: 3: A27V/D79L/S87P/A112P/D142L (protein, listed as Thermoascus aurantiacus)
chain: MRLVASLTALVALSVPVFPAAVNVKRASSYLEITLSQVSNTLIKAVVQNTGSDELSFVHLNFFKDPAPVKKVSVYRDGSEVQFEGILSRYKSTGLSRDAFTYLAPGESVEDVFDIASTYDLTSGGPVTIRTEGVVPYATANSTDIAGYISYSSNVLTIDVDGAAAATVSKAITPLDRRTRISSCSGSRQSALTTALRNAASLANVAADAAQSGSASKFSEYFKTTSSSTRQTVAARLRAVAREASSSSSGATTYYCLDPYGYCSPNVLAYTLPSYNIIANCDIFYTYLPPLTSTCHAQDQATTALHEFTHAPGVYSPGTLDLAYGYQAAMGLSSSQAVMNADTYALYANAIYLGC
B8: JTP072: protease variant of SEQ ID NO: 3: N26R/D79L/S87P (protein, listed as Thermoascus aurantiacus)
chain: MRLVASLTALVALSVPVFPAAVNVKRASSYLEITLSQVSNTLIKAVVQNTGSDELSFVHLNFFKDPAPVKKVSVYRDGSEVQFEGILSRYKSTGLSRDAFTYLAPGESVEDVFDIASTYDLTSGGPVTIRTEGVVPYATANSTDIAGYISYSSNVLTIDVDGAAAATVSKAITPLDRRTRISSCSGSRQSALTTALRNAASLARAAADAAQSGSASKFSEYFKTTSSSTRQTVAARLRAVAREASSSSSGATTYYCLDPYGYCSPNVLAYTLPSYNIIANCDIFYTYLPALTSTCHAQDQATTALHEFTHAPGVYSPGTDDLAYGYQAAMGLSSSQAVMNADTYALYANAIYLGC
B9: JTP068: protease variant of SEQ ID NO: 3: D79L/S87P/T114P (protein, listed as Thermoascus aurantiacus)
chain: MRLVASLTALVALSVPVFPAAVNVKRASSYLEITLSQVSNTLIKAVVQNTGSDELSFVHLNFFKDPAPVKKVSVYRDGSEVQFEGILSRYKSTGLSRDAFTYLAPGESVEDVFDIASTYDLTSGGPVTIRTEGVVPYATANSTDIAGYISYSSNVLTIDVDGAAAATVSKAITPLDRRTRISSCSGSRQSALTTALRNAASLANAAADAAQSGSASKFSEYFKTTSSSTRQTVAARLRAVAREASSSSSGATTYYCLDPYGYCSPNVLAYTLPSYNIIANCDIFYTYLPALPSTCHAQDQATTALHEFTHAPGVYSPGTDDLAYGYQAAMGLSSSQAVMNADTYALYANAIYLGC

tested on: zein; test: Relative activity assay of protease variants (zein micro titer plate); assay type: biochemical; details: Table 3
Experimental: Each well contains 200 microL of 0.05-0.1% of zein (Sigma), 0.25 mM ZnSO4 and 1% of agar in 20 mM sodium acetate buffer, pH 4.5.
Yeast clones on SC-glucose were inoculated to a well of a 96-well micro titre plate containing YPD+Zn medium and cultivated at 28° C. for 3 days. The culture supernatants were applied to a 96-well zein micro titer plate and incubated at at least 2 temperatures (ex. 60° C. and 65° C., 70° C. and 75° C., 70° C. and 80° C.) for more than 4 hours or overnight. The turbidity of zein in the plate was measured as A630 and the relative activity (higher/lower temperatures) was determined as an indicator of thermoactivity improvement. The clones with higher relative activity than the parental variant were selected and the sequence was determined.

Point of comparison: B1, “Relative activity 75° C./70° C.” value 92%. Against it:
- B2 — higher, 105%
- B3 — the same, 92%
- B4 — higher, 103%
- B5 — higher, 94%
- B6 — higher, 111%
- B9 — higher, 99%

Point of comparison: B7, “Relative activity 75° C./65° C.” value 100%. Against it:
- B8 — lower, 92%
